# From the nanobody polyreactivity screen of Harvey et al. (2022)
# Assay: yeast display, Sf9 membrane polyspecificity reagent, FACS + sequencing; frameworks hold sequencing errors
# In short: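 Nanobodies from a synthetic yeast display library (Saccharomyces cerevisiae BJ5465), induced 36–48 hours with galactose, were stained 1 hour at 4 °C with 10% biotinylated, detergent-solubilized Sf9 membrane reagent, enriched on streptavidin microbeads, then FACS-sorted. Anti-HA (expression) and streptavidin (reagent binding) fluorescence set low and high (top ~1%) gates. Polyreactivity labels come from the gate of origin. Genes were colony-PCR amplified, MiSeq 2 × 250 sequenced and filtered by CDR length.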
row,Sequence,polyreactivity (PSR sort gate)
1,QVLLVESGGGLVQAGGSLRLICAASGSIFGVYAMGWFRQAAGKDRELVAAISLSGTSTYYADSVKGRFTISRDNAKNTVYLQMNSLKAEDTAVYYCAAPWRLFSLYDYWGQGTQVTVSS,low polyreactivity
2,QVHLVESGGGLVQAGGRLRLSCAASGSIFPGYAMGWYRQAPGKERELVAAITFSGGSTYYADSLKGRFTISRDNAKNTVYLQMNSLKPEDTAVYYCAAPGWYGGYPSYYEYGYWGQGTQVTVSS,low polyreactivity
3,QVQLVESGGGLVQAGGSLRLSCAASGRTFVVNYMGWYRQAPGKERELVATINVSGGSTSYADSVKGRFTISRDNAKNTVYLQMNSLKPEDTAVYYCNVDTYVEYPHDYWGQGTQVTVSS,low polyreactivity
4,QVQLVESGGGLVQAGGSIRLSCAASGRTFSAYAMGWYRQEPGKVRELVARITSVDSTNYADSVKGRFTISRDNAKNTVYLQMNSLKPEDTAVYYSNATFGYPLVDYDDYWGQGTQVTVSS,low polyreactivity
5,QDQLVESGGGLVQAGGSLRLSCAASRSTFYHNVMGWYRQAPGKERELVASIDTGDSTNYADSVKGRFTISRDNAKNTVYLQMNSLKPEDTAVYYCAAEIPRRWASFATLWYDYWGQGTQVTVSS,low polyreactivity
6,QVQLVESGGGLVQAGGSLRLSCAASGITFYGNAMGRYRQAPGKEREVVAAISSSGGTTYYADSVKGRFTISRDNAKNTVYLQMNSLKPEDTAVYFCNALHPVVYYGTYFNLRRYDYWGQGTQVTVSS,low polyreactivity
7,QVQLAESGGGLVQAGGSLRLSCAASGIIFYFYAMGWYRQAPGKERELVAAINSSSGRTYYADSVKGRFTISRDNAKNSVYLQMNSLKPEDTAVYYCAAYYYGSYDGTPYDYWGQGTQVTVSS,low polyreactivity
8,QVQLVETGGGLVQAGGSLRLSCAASGRTFVGNAKGWYRPAPGQERELVADITWSGDITYYADSVKGRFTISRDHAKNSVYLQMNSLKPEDTAVYYCAADYHRRRTDYDYWGQGTQVTVSS,low polyreactivity
9,QVQLVESGGGLVQAGGSLRLSCAASGRIIDNNAMGWYRPAPGKERQLVAAISWSGTSTYYADSVKGRFTISRDHAKNTVYLQMNSLKPEDTAVYYCNADSWFYTRFDYWGQGTQVTVSS,high polyreactivity
10,QVQLQESCGRLVQAGGILRLSCAACGNIFPSAVMGWYRQALGTEREFVATLNSGSNPYYADSVKGRFTISRDNAKNTVYLQLNSLKLEDTAVYYCAAYYKLPAWHTYWGQGTQVTVSS,low polyreactivity
11,QVQLVESGGGLVQAGGSLRLSCAASGSTFEYYAMGWYRQAPGKERELVAAITRRGGSTYYADSVKGRFTISRDNAKNTVYLQMNSLKPEDTAVYYCAAVPTQKSPRTHDYWGQGTQVTVSS,low polyreactivity
12,QVQLVESGGGLVQAGGSLRLSCAASGFIFWQYTMGWYRQAPGKERELVAAITWRGTRTYADSVKGRFTISRDNAKNTVYLQMNSLKPEDTAVYYCAAREYYHGPDGGYYGYDYWGQGTQVTVSS,high polyreactivity
13,QVQLVESGGGLVQAGGSLRLSCAASGFILYYNAMGWYRQAPGKERELVADISRRGTSTYYADSVKGRFTISRDNAKNTVYLQMNRLKPEDTAVYYCKAVPSARTQPYNGWGQGTQVTVSS,high polyreactivity
14,QVQLVESGGGLVQAGVSLRLSCAASGSTFTYNAMGWYRQAPGKERELVAAISYGGGRTYYADSVKGRFTISRDNAKNTVYLLMNSLKPEDTAVYYCNRYRYSYVEFDYWGQGTQVTVSS,high polyreactivity
15,QVQLVDSGGGLVQAGGSLRLSCAASGFIFPVYTMGWYRQAPGKERELVAAITQIGGSTQYADSVKGRFTISRDNAKNTVYLQMNSLKPEDTAVYYCAVDYDSYWYGTYVNEYVYWGQGTQVTVSS,low polyreactivity
16,QVQLVESGGGLFQAGGSLRLSCAASGFTIEWYAMGWYRQAPGKERELVATITSSGDSTYYADSEKGRFTISRDNAKNTVYFQMYSLKPEDTAVYYCNVDNSVYDFSEYVYWGQVTQVTVSS,high polyreactivity
17,QVQLVESGGGLVQAGGSLRLSCAASGRIFDANVMGGYRQAPGKERELVAAISSGGRTKYADSVKGRFTISRDNAKNTVYLQMNSLKPEDTAVYYCAKKHSPLYDYWGQGTQVTVSS,low polyreactivity
18,QVQLVESGGGIVQAGGSLRLSCAASGFIFAGNAMGWSSQAPGKERELVAAITRRGGSTHYADSVKGRFTISRDKAKYTVYLQMNSLKPEDTAVYYCNAAVQPPWSDYWGQGTQVTVSS,low polyreactivity
19,QVQLVESGGGLVQAGGSLRLSCAASGFTFVYNAMGWYRQAPGKERELVAAINSGGRTNYADSVKGRFTISRDNAKNTVYLQMNSLKPEDTAVYYCAAEVTSFSFGGDATEYYWGQGTQVTVSS,low polyreactivity
20,QVQLVESGGGLVQAGGSLRLSCAASGRIFGPYAMGWYRQAPGKERELVAAISGRGSSTYYADSVKGRFTLSRDNAKNTVYLQMNSLKPEDTAVYYCAKYPTYSYDYWGQGTQVTVSS,high polyreactivity
21,QVQLVESGGGLVQAGGSLRLSCAASGLTFRINAMGWYRQAPGKERELVAAITDSGTSTSYADSVKGRFTISRDNAKNTVYLQMKSLKPEDTAVYYCAADVRPGYYLYRSWGAYDYWGQGTQVTVSS,low polyreactivity
22,QVRLVESGGGLDQAGGSLPLSCAASGRTFEPNAMGWYRQAPGKERELVAAITSAGITHYADSVKGRFTISRDNAKNTVYLQMNSLKPEDTAVYYCRLQTGIIDRLRRYNYWGQGTQVTVSS,high polyreactivity

row,Sequence,polyreactivity (PSR sort gate)
1,QVQLVESGGGLVQAGGSLRLSFAASGFTFRNYAKGWYRQAPGKERELVATISRSGCSTYYADSVKGRFTISRDNAKNTVYLQMNSLKPEDTAVYYCAAKTILWKYYPYYYVTYDYWGQGTQVTVSS,high polyreactivity
2,QVHLVESGGGLDQAGGSLRLSCAASGSIFPHNAMVWYIQAPGKERELVASITSRCGITYYADSVKGRFTISRDNAKNTVYLQMNRLKPEDTAVYYCAARNNVEYLTIYKPYSFGSDSWGQGTQVTVSS,low polyreactivity
3,QVQLVESGGGLDQARGSLRLSCAASGSITTFYAMGWSRQAHGKERELVAAISSSGGSTYYADSVKGRFTISRDNAKNTVYLQMNSLKPEDTAVYSCAAKGYPSRYSYGWYNYWGQGTQVTLSS,high polyreactivity
4,QVQLVDSGGGLVQAGGSLRLSCSASGSTFSVYAMGWYRQAPGKERELVAAITSGGSTNYADSVKGRFTISRDNAKNTVYLQMNSLKPEDTAVFYCNAYYVLIGYQPHWGYYWGQGTQVTVSS,low polyreactivity
5,QVQLVESGGGLVQAGGSLRLSCAATGLIIYRNAMGWYRQAPGKEREFVAAISYSGGSTSYADSVKGRLTISRDNAKNTVYLQMNSLKPEDTAVYYCAVDQSRGWFYLYYYWGQGTQVTVSS,low polyreactivity
6,QVQLVESGGGLVQAGCSLRLSCAASGSTFPYNAMGWYRQAPGKERELVATIDATGGSTSYADSVKGRFTISRDNAKNTVYLQMNSLKPEDTAVYYCAAVAYILYFYAYYLTYDYWGQGTQVTVSS,low polyreactivity
7,QVQLVESGGGIVQAGVSLRLSCAASGSTFVRYAMGWYRPAPGKERELVAAISGGGSTSYADSVKGRFTISRDNAKNTVYLQMNSLKPEDTAVYYCAAEKYRWENDAYQYYTFDYWGQGTQVTVSS,low polyreactivity
8,QVQLVESGGGLVQAGGSLRLSCADSGSTFRYYVMGWYRQAPGKERELVARITSAASTNYADSVKGRFTISRDNAKNTVYLQMNSLKPEDTAVYYCAARKYGSRYRLKYDYWGQGTQVTVSS,high polyreactivity
9,QVEHVESGGGLVQAGGSLRLSCAASGITFAAYAMGWYRQARGTERELVAAISTSGDSTYYADSVKGRFTISRDYAKITVYLQMNSLKPADTAVYYCNDRRYGYGVGRGLYIYDYCGQGTQVTVSS,high polyreactivity
10,QVQLVESGGGLVQAGGSLRLSCAASGFTFWRNAMGWYRQAPGKERELVAAISSGTGRTYYADSVKGRFTISRDNAKNTVYLQMNSLKPEDTAVYYCAKVNGRTSYGTSTRDYWGQGTQVTVSS,low polyreactivity
11,QVQLVESGGGIVQAGRSLRLSCAASGSIFDFNAMGWYRQAPGKERELVAAITWGGGSTYYAYSVKGRFTNSRDNEKNTVYLQIKSLKPEDTAVYYCNAAYGRYRYDYWGQGTQVTVSS,low polyreactivity
12,QVQLVESAGGLVQAGGSLRLSCAASGSTQVIYHMGWNRQAPGNERYIVAAITYGGGRTYYADSVKGRFTISSDNAKNTVYLQMNSLKPEDTAYYYCAAYSYYYTWNPGYWGQGTQVTVSS,high polyreactivity
13,QDQLVESGGGLVQAGGSLRLSCAASGLIFRIYAMGWYRQAAGKERELVAAITSGGTSTSYADSVKGRFSISRDNAKNTVYLQMNSLKPEDTAVYYCNARWSDRVRIGLDYWGQGTQVTVSS,high polyreactivity
14,QVQLVESGGGLVHAGGSLRLSCAASGYTFDSYTMGWYRQAPGKERELVAAISGRGGSTYYADSVKGRFTISRDNAKNTVYIQMNSLKPEDTAVYYCNTYPPIGYDYWGQGTQVTVSS,low polyreactivity
15,QVQLVESGGGLVQAGGSLRLSCAASGRIFTGYVMGWYRQAPGKERELVAAITYTGGSTFYADSVKGRFTISRDNAKNTVYLQMNSLKPEDTAVYYCAADESPYFLDIVTYYEFDYWGQGTQVTVSS,low polyreactivity
16,QVQLVESGGGLVQAGGSLRLSCAASGRILAPYAMGWYRQAPGKERELVAAISASGGTTYYADSVKGRFTISRDNAKNTVYLQMNSLKPEDTAVYYCNARWSPGNLRYGREGDYWGQGTQVTVSS,high polyreactivity
17,QVQLVESGGGLVQAGGSLRLSCAASGFTFGSYAMGWYRPAPGKERELVAGISRGGSTNYADSVKGRFTISRDNAKNTVYLQMNSLKPEDTAVYYCAAYVIGPDQFIYDYWGQGTQVTVSS,low polyreactivity
18,QVQDVESGGGLVQAGGSLRLSCAASGRTIDPNAMGWYRQAPGKERELVAAITRTGVRTYYADSVKGRFTISRDNAKNTVYLQMNSLKPEDTAVYYCNRYGARSNDYWGQATQVTVSS,low polyreactivity
19,QVQLVESGGGLVQAGGSLRLSCAASGRIFRRYAMGWYRQAPGKERELVAAISSGGSTNYADSVKGRFTLSRDNAKNTVYLQMNSLKPEDTAVYYCAARRTATTSRAYYYWGQGTQVTVSS,high polyreactivity
20,QVQLVESGGGLVQAGGSLRLSCAASGFTFYSYAMGWYRQAPGKERELVAAISWSGTRTYYADSVKGRFTISRDNAKNTVYLQMNSLKPVDTAVYDCAADTRRWARGYDYWGQGTQVTVSS,high polyreactivity
21,QVQLVESGGGLVQAGGSLRLSCAASGITIPYNAMGWYRQAPGKERELVAVISWSGGSTYYADSVKGRFTISRDNAKNTVYLQMNRQKPEDTAFYYCAAEPGGGYYYWGQGTKVTVSS,low polyreactivity
